As usually defined, the Kd is the constant that tells how readily two partners part at equilibrium.

Our source for the Kd values is article PMC10620989 (2023).

The target of this assay is Bim BH3 peptide (FITC-labeled) BH3 (Homo sapiens, UniProt O43521, FITC-labeled Bim BH3 peptide, GST-tagged Mcl-1). The experiment in a line: fluorescence polarization.

B1: Mcl-1 (GST-tagged) 152-309 (protein)
chain: EDDLYRQSLEIISRYLREQATGSKDSKPLGEAGAAGRRALETLRRVGDGVQRNHETAFQGMLRKLDIKNEGDVKSFSRVMVHVFKDGVTNWGRIVTLISFGAFVAKHLKSVNQESFIEPLAETITDVLVRTKRDWLVKQRGWDGFVEFFHVQDLEGGI
Molecule B1 gave a Kd of 12.4 nM.
